Assay results as given in US20140087995A1 (published 2014).
Numbered stars: 1 amine (or outer) side, 2 acyl side, 3 side chain; on linkers, the order of the positions; unused ones are H or OH. Bridge positions count the residues as written; N and C are the ends. Side chains are listed from the residue outwards. Ends that are not written are not given here. * marks the point of attachment. C20 diacid = O=C(O)CCCCCCCCCCCCCCCCCCC(=O)*; γGlu = O=C(O)[C@H](CCC(=O)[*:2])N[*:1]; AEEA = NCCOCCOCC(=O)O

T1: rat amylin receptor (rat calcitonin receptor + rat RAMP 3) (rat, UniProt P32214 25-516; Q9JJ73 23-147)
T1 construct: whole, on cells; Used as membranes prepared from BHK tk'ts 13 cells transiently transfected with rat calcitonin receptor and rat RAMP 3 (Assay VI); also called rAmylin-R; rat amylin 3(a) receptor
T1 sequence (looked up) 1: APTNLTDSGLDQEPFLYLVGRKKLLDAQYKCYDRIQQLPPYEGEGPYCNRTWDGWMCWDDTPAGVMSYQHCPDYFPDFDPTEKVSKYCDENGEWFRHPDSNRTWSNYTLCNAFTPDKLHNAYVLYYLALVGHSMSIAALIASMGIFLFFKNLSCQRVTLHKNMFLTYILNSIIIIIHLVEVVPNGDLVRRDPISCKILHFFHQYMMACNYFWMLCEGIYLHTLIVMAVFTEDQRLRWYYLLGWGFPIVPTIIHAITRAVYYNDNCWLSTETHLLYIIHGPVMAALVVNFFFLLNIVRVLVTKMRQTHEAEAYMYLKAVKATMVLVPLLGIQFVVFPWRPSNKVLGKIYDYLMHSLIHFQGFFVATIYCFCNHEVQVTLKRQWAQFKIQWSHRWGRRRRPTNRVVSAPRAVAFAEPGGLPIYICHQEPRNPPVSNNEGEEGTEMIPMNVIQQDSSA
T1 sequence (looked up) 2: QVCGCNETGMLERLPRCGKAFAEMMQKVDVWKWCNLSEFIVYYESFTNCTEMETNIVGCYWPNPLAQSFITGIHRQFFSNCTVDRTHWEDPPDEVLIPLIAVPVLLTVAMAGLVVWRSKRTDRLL

T2: human calcitonin receptor (human, UniProt P30988 25-474)
T2 construct: whole, on cells; Used as membranes prepared from a BHK tk'ts 13 cell line stably transfected with the human calcitonin receptor (Assay VII); also called hCTR; hCT
T2 sequence (looked up): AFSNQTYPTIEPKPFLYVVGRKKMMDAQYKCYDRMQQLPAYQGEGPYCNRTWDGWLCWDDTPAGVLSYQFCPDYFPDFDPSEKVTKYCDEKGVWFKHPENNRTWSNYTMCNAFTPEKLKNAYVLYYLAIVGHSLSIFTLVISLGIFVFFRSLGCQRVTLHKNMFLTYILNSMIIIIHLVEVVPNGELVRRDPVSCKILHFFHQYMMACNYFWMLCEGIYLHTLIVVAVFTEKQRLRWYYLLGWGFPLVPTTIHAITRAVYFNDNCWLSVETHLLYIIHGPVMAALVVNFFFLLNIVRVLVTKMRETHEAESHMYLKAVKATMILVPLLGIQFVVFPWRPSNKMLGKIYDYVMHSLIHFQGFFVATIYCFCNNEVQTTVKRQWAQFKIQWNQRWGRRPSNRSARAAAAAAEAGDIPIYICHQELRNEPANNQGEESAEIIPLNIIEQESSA

T3: rat calcitonin receptor (rat, UniProt P32214 25-516)
T3 construct: whole, on cells; Used as membranes prepared from BHK tk'ts 13 cells transiently transfected with the rat calcitonin receptor (Assay VIII); also called rCTR; rat calcitonin (a) receptor
T3 sequence (looked up): T1 sequence (looked up) 1

B1: N^ε1-[2-[2-[2-[[(4S)-4-carboxy-4-(19-carboxynonadecanoylamino)butanoyl]amino]ethoxy]ethoxy]acetyl]-[Lys14,Arg17,Pro21,Pro27,Pro31]-h-amylin (peptide)
peptide: K([AEEA-γGlu-C20 diacid])CNTATCATQRLAKFLRHSSPNFGAIPSSTPVGSNTY-NH2
modifications: disulfide 2-7; N-terminus assumed
SMILES: CC[C@H](C)[C@H](NC(=O)[C@H](C)NC(=O)CNC(=O)[C@H](Cc1ccccc1)NC(=O)[C@H](CC(N)=O)NC(=O)[C@@H]1CCCN1C(=O)[C@H](CO)NC(=O)[C@H](CO)NC(=O)[C@H](Cc1c[nH]cn1)NC(=O)[C@H](CCCNC(=N)N)NC(=O)[C@H](CC(C)C)NC(=O)[C@H](Cc1ccccc1)NC(=O)[C@H](CCCCN)NC(=O)[C@H](C)NC(=O)[C@H](CC(C)C)NC(=O)[C@H](CCCNC(=N)N)NC(=O)[C@H](CCC(N)=O)NC(=O)[C@@H](NC(=O)[C@H](C)NC(=O)[C@@H]1CSSC[C@H](NC(=O)[C@@H](N)CCCCNC(=O)COCCOCCNC(=O)CC[C@H](NC(=O)CCCCCCCCCCCCCCCCCCC(=O)O)C(=O)O)C(=O)N[C@@H](CC(N)=O)C(=O)N[C@@H]([C@@H](C)O)C(=O)N[C@@H](C)C(=O)N[C@@H]([C@@H](C)O)C(=O)N1)[C@@H](C)O)C(=O)N1CCC[C@H]1C(=O)N[C@@H](CO)C(=O)N[C@@H](CO)C(=O)N[C@H](C(=O)N1CCC[C@H]1C(=O)N[C@H](C(=O)NCC(=O)N[C@@H](CO)C(=O)N[C@@H](CC(N)=O)C(=O)N[C@H](C(=O)N[C@@H](Cc1ccc(O)cc1)C(N)=O)[C@@H](C)O)C(C)C)[C@@H](C)O
notes: Analogue of human amylin; also called compound 74
B2: N^ε1-[2-[2-[2-[[(4S)-4-carboxy-4-(19-carboxynonadecanoylamino)butanoyl]amino]ethoxy]ethoxy]acetyl]-[Thr14,Arg17,Pro21,Pro27,Pro31]-h-amylin (peptide)
peptide: K([AEEA-γGlu-C20 diacid])CNTATCATQRLATFLRHSSPNFGAIPSSTPVGSNTY-NH2
modifications: disulfide 2-7; N-terminus assumed
SMILES: CC[C@H](C)[C@H](NC(=O)[C@H](C)NC(=O)CNC(=O)[C@H](Cc1ccccc1)NC(=O)[C@H](CC(N)=O)NC(=O)[C@@H]1CCCN1C(=O)[C@H](CO)NC(=O)[C@H](CO)NC(=O)[C@H](Cc1c[nH]cn1)NC(=O)[C@H](CCCNC(=N)N)NC(=O)[C@H](CC(C)C)NC(=O)[C@H](Cc1ccccc1)NC(=O)[C@@H](NC(=O)[C@H](C)NC(=O)[C@H](CC(C)C)NC(=O)[C@H](CCCNC(=N)N)NC(=O)[C@H](CCC(N)=O)NC(=O)[C@@H](NC(=O)[C@H](C)NC(=O)[C@@H]1CSSC[C@H](NC(=O)[C@@H](N)CCCCNC(=O)COCCOCCNC(=O)CC[C@H](NC(=O)CCCCCCCCCCCCCCCCCCC(=O)O)C(=O)O)C(=O)N[C@@H](CC(N)=O)C(=O)N[C@@H]([C@@H](C)O)C(=O)N[C@@H](C)C(=O)N[C@@H]([C@@H](C)O)C(=O)N1)[C@@H](C)O)[C@@H](C)O)C(=O)N1CCC[C@H]1C(=O)N[C@@H](CO)C(=O)N[C@@H](CO)C(=O)N[C@H](C(=O)N1CCC[C@H]1C(=O)N[C@H](C(=O)NCC(=O)N[C@@H](CO)C(=O)N[C@@H](CC(N)=O)C(=O)N[C@H](C(=O)N[C@@H](Cc1ccc(O)cc1)C(N)=O)[C@@H](C)O)C(C)C)[C@@H](C)O
notes: Analogue of human amylin; also called compound 75
B3: N^ε1-[(4S)-4-carboxy-4-(19-carboxynonadecanoylamino)butanoyl]-[Arg14,Arg17,Pro21,Pro27,Pro31]-h-amylin (peptide)
peptide: K([γGlu-C20 diacid])CNTATCATQRLARFLRHSSPNFGAIPSSTPVGSNTY-NH2
modifications: disulfide 2-7; N-terminus assumed
SMILES: CC[C@H](C)[C@H](NC(=O)[C@H](C)NC(=O)CNC(=O)[C@H](Cc1ccccc1)NC(=O)[C@H](CC(N)=O)NC(=O)[C@@H]1CCCN1C(=O)[C@H](CO)NC(=O)[C@H](CO)NC(=O)[C@H](Cc1c[nH]cn1)NC(=O)[C@H](CCCNC(=N)N)NC(=O)[C@H](CC(C)C)NC(=O)[C@H](Cc1ccccc1)NC(=O)[C@H](CCCNC(=N)N)NC(=O)[C@H](C)NC(=O)[C@H](CC(C)C)NC(=O)[C@H](CCCNC(=N)N)NC(=O)[C@H](CCC(N)=O)NC(=O)[C@@H](NC(=O)[C@H](C)NC(=O)[C@@H]1CSSC[C@H](NC(=O)[C@@H](N)CCCCNC(=O)CC[C@H](NC(=O)CCCCCCCCCCCCCCCCCCC(=O)O)C(=O)O)C(=O)N[C@@H](CC(N)=O)C(=O)N[C@@H]([C@@H](C)O)C(=O)N[C@@H](C)C(=O)N[C@@H]([C@@H](C)O)C(=O)N1)[C@@H](C)O)C(=O)N1CCC[C@H]1C(=O)N[C@@H](CO)C(=O)N[C@@H](CO)C(=O)N[C@H](C(=O)N1CCC[C@H]1C(=O)N[C@H](C(=O)NCC(=O)N[C@@H](CO)C(=O)N[C@@H](CC(N)=O)C(=O)N[C@H](C(=O)N[C@@H](Cc1ccc(O)cc1)C(N)=O)[C@@H](C)O)C(C)C)[C@@H](C)O
notes: Analogue of human amylin; also called compound 63
B4: N^ε1-[2-[2-[2-[[(4S)-4-carboxy-4-(19-carboxynonadecanoylamino)butanoyl]amino]ethoxy]ethoxy]acetyl]-[Ser14,Arg17,Pro21,Pro27,Pro31]-h-amylin (peptide)
peptide: K([AEEA-γGlu-C20 diacid])CNTATCATQRLASFLRHSSPNFGAIPSSTPVGSNTY-NH2
modifications: disulfide 2-7; N-terminus assumed
SMILES: CC[C@H](C)[C@H](NC(=O)[C@H](C)NC(=O)CNC(=O)[C@H](Cc1ccccc1)NC(=O)[C@H](CC(N)=O)NC(=O)[C@@H]1CCCN1C(=O)[C@H](CO)NC(=O)[C@H](CO)NC(=O)[C@H](Cc1c[nH]cn1)NC(=O)[C@H](CCCNC(=N)N)NC(=O)[C@H](CC(C)C)NC(=O)[C@H](Cc1ccccc1)NC(=O)[C@H](CO)NC(=O)[C@H](C)NC(=O)[C@H](CC(C)C)NC(=O)[C@H](CCCNC(=N)N)NC(=O)[C@H](CCC(N)=O)NC(=O)[C@@H](NC(=O)[C@H](C)NC(=O)[C@@H]1CSSC[C@H](NC(=O)[C@@H](N)CCCCNC(=O)COCCOCCNC(=O)CC[C@H](NC(=O)CCCCCCCCCCCCCCCCCCC(=O)O)C(=O)O)C(=O)N[C@@H](CC(N)=O)C(=O)N[C@@H]([C@@H](C)O)C(=O)N[C@@H](C)C(=O)N[C@@H]([C@@H](C)O)C(=O)N1)[C@@H](C)O)C(=O)N1CCC[C@H]1C(=O)N[C@@H](CO)C(=O)N[C@@H](CO)C(=O)N[C@H](C(=O)N1CCC[C@H]1C(=O)N[C@H](C(=O)NCC(=O)N[C@@H](CO)C(=O)N[C@@H](CC(N)=O)C(=O)N[C@H](C(=O)N[C@@H](Cc1ccc(O)cc1)C(N)=O)[C@@H](C)O)C(C)C)[C@@H](C)O
notes: Analogue of human amylin; also called compound 73
B5: N^ε1-[(4S)-4-carboxy-4-(19-carboxynonadecanoylamino)butanoyl]-[Arg14,Arg17,Pro21,Pro27,Pro34]-h-amylin (peptide)
peptide: K([γGlu-C20 diacid])CNTATCATQRLARFLRHSSPNFGAIPSSTNVGPNTY-NH2
modifications: disulfide 2-7; N-terminus assumed
SMILES: CC[C@H](C)[C@H](NC(=O)[C@H](C)NC(=O)CNC(=O)[C@H](Cc1ccccc1)NC(=O)[C@H](CC(N)=O)NC(=O)[C@@H]1CCCN1C(=O)[C@H](CO)NC(=O)[C@H](CO)NC(=O)[C@H](Cc1c[nH]cn1)NC(=O)[C@H](CCCNC(=N)N)NC(=O)[C@H](CC(C)C)NC(=O)[C@H](Cc1ccccc1)NC(=O)[C@H](CCCNC(=N)N)NC(=O)[C@H](C)NC(=O)[C@H](CC(C)C)NC(=O)[C@H](CCCNC(=N)N)NC(=O)[C@H](CCC(N)=O)NC(=O)[C@@H](NC(=O)[C@H](C)NC(=O)[C@@H]1CSSC[C@H](NC(=O)[C@@H](N)CCCCNC(=O)CC[C@H](NC(=O)CCCCCCCCCCCCCCCCCCC(=O)O)C(=O)O)C(=O)N[C@@H](CC(N)=O)C(=O)N[C@@H]([C@@H](C)O)C(=O)N[C@@H](C)C(=O)N[C@@H]([C@@H](C)O)C(=O)N1)[C@@H](C)O)C(=O)N1CCC[C@H]1C(=O)N[C@@H](CO)C(=O)N[C@@H](CO)C(=O)N[C@H](C(=O)N[C@@H](CC(N)=O)C(=O)N[C@H](C(=O)NCC(=O)N1CCC[C@H]1C(=O)N[C@@H](CC(N)=O)C(=O)N[C@H](C(=O)N[C@@H](Cc1ccc(O)cc1)C(N)=O)[C@@H](C)O)C(C)C)[C@@H](C)O
notes: Analogue of human amylin; also called compound 65

target: T1, rat amylin receptor (rat calcitonin …); test: SPA competition with 125I-rat amylin, membranes of BHK cells with rat CTR + rat RAMP3 (Assay VI)

Binder	IC50
B1	4.89 nM
B2	4.03 nM
B3	3.48 nM
B4	0.283 nM
B5	1.16 nM

target: T2, human calcitonin receptor; test: IC50 on human CTR divided by IC50 on human amylin receptor (Assays VII/V)
In short: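 Scintillation proximity competition binding on cell membranes at 35 ng/μL with SPA beads, in 50 mM Hepes pH 7.4, 1 mM CaCl2, 5 mM MgCl₂, 0.1% OA, 0.02% Tween20. Incubated 120 min at 25° C with shaking. IC₅₀ from one-site competition fit.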

Binder	Ratio hCT/hAmylin binding
B1	101
B2	91.4
B3	157
B4	51.7
B5	82.4

target: T3, rat calcitonin receptor; test: SPA competition with 125I-calcitonin, membranes of BHK cells with rat CTR (Assay VIII)

Binder	IC50
B1	109 nM
B2	442 nM
B3	124 nM
B4	50.3 nM
B5	108 nM

target: T3, rat calcitonin receptor; test: IC50 on rat CTR divided by IC50 on rat amylin receptor (Assays VIII/VI)

Binder	Ratio rCT/rAmylin binding
B1	22.3
B2	110
B3	35.6
B4	178
B5	93.2
